The numbers were not newly measured in paper PMC3978290, which cites them from elsewhere.

pKd: −log10 of the molar value. Where “and” joins values, the source holds several entries; their conditions need not be identical. Equal values may be shown once.

The target of data set [1] is Complement factor H (Homo sapiens) (UniProt P08603). As to the kind of experiment: sedimentation equilibrium.
The target in a further data set is C3u C3u (Homo sapiens) (UniProt P01024). In words: sedimentation velocity.
C3u C3u (Homo sapiens), sequence (P01024 23-667, chain 1 of 2): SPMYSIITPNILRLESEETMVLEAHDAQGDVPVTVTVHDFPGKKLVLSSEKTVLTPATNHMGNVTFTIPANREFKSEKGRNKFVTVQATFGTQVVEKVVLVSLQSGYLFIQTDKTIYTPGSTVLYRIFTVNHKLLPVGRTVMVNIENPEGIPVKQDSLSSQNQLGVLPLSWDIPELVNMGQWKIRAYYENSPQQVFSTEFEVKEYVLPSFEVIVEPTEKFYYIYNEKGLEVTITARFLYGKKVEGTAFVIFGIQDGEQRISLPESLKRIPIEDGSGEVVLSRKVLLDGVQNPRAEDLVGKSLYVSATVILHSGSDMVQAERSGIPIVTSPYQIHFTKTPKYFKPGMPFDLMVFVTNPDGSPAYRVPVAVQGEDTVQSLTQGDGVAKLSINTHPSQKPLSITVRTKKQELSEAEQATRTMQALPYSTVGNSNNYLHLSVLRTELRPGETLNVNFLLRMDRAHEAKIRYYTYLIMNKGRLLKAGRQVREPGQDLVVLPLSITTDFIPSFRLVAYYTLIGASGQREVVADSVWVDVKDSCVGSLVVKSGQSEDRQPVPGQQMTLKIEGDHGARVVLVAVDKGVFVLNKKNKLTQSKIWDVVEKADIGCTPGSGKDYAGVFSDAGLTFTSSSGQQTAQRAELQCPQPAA
C3u C3u (Homo sapiens), sequence (P01024 672-1663, chain 2 of 2): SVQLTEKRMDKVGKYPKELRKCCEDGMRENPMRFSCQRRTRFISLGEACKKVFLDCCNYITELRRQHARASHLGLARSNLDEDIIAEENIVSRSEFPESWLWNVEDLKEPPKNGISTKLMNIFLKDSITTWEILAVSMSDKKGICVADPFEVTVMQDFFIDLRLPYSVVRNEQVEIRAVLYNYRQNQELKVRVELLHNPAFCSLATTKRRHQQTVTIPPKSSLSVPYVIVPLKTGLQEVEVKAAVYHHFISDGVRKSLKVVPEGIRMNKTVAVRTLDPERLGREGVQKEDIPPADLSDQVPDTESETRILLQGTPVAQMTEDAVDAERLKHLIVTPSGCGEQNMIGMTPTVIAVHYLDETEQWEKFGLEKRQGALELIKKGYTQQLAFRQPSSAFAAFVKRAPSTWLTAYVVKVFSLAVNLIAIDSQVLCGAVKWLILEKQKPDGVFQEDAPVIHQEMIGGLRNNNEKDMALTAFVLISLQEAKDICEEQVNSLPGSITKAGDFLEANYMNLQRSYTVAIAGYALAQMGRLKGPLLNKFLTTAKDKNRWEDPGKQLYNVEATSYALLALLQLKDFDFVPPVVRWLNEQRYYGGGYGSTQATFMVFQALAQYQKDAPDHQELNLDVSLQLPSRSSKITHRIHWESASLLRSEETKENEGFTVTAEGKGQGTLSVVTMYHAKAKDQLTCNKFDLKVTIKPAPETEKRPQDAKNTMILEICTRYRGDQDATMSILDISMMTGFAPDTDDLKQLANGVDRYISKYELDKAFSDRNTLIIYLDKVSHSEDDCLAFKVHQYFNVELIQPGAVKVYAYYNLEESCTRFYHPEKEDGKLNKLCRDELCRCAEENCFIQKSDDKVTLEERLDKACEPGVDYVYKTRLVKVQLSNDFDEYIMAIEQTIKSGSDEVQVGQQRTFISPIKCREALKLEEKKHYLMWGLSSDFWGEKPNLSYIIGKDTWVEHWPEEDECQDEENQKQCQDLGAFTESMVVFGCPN
In another data set the target is C3b C3b (Homo sapiens) (UniProt P01024). As to the kind of experiment: SPR. Background: SPR reads the build-up and loss of mass on a sensor chip optically.
C3b C3b (Homo sapiens), sequence (P01024 566-670): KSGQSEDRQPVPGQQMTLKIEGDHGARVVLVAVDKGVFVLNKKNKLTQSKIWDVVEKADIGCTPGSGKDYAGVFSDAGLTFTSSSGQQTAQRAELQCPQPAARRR
Data set [2] concerns the target C-reactive protein (Homo sapiens) (UniProt P02741). In words: SPR.

Complement factor H, sequence (P08603 19-1231): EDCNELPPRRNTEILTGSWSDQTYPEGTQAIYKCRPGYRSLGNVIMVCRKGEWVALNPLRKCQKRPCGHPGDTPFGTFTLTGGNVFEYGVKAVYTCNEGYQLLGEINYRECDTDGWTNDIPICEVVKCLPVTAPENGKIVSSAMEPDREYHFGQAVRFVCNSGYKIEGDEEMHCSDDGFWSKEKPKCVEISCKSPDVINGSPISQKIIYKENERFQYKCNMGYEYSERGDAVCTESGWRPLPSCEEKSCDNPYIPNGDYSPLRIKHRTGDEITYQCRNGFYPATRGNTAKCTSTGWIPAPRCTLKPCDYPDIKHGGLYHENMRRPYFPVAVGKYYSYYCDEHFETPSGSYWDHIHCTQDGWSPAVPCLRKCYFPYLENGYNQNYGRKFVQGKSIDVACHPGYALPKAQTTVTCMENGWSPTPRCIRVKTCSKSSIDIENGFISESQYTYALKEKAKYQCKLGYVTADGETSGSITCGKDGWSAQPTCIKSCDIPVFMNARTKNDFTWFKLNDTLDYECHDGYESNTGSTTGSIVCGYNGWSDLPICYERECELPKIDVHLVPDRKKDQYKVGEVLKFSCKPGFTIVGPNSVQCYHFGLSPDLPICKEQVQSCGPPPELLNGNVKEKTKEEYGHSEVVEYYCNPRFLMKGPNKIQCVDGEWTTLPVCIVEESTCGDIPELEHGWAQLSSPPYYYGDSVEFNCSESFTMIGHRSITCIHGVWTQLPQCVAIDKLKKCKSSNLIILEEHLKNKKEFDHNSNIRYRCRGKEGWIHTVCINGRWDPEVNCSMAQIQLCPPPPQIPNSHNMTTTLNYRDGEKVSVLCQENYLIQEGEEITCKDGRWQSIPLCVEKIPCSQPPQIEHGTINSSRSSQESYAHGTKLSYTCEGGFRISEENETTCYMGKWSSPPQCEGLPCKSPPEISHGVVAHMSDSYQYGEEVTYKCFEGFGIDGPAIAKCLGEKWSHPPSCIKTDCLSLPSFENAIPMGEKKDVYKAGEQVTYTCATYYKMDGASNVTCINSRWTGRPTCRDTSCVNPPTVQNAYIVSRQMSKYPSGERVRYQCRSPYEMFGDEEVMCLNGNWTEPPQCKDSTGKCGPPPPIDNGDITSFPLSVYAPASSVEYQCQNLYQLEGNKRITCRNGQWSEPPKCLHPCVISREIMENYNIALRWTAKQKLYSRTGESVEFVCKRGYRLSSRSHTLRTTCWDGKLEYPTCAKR
Complement factor H SCR-1/4 SCR-1/4, sequence (P08603 19-264): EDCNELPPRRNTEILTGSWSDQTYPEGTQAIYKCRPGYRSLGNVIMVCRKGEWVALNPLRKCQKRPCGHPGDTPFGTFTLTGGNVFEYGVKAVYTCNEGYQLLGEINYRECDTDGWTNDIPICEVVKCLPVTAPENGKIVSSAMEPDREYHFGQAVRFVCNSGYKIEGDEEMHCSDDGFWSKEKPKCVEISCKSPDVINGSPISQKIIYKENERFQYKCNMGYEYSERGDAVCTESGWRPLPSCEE
Complement factor H SCR-19/20, sequence (P08603 1107-1231): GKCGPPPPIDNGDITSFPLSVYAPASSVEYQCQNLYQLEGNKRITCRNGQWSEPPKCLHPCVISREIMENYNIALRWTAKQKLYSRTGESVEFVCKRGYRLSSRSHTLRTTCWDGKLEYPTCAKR
C-reactive protein (Homo sapiens), sequence (P02741 19-223): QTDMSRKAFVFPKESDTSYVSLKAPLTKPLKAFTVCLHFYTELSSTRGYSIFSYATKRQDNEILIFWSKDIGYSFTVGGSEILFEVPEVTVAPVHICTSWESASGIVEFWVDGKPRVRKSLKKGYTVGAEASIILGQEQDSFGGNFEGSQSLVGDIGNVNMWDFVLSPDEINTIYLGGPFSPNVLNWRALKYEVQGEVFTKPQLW

The pKd is the Kd on a negative log10 scale, so that one unit is a factor of ten. For the substance “Complement factor H (from UniProt P08603)”, the pKd in data set [1] is 4.55; with C3u C3u (Homo sapiens) it was 6.23; with C3b C3b (Homo sapiens), 5.96; in data set [2], 5.38.

With “Complement factor H SCR-1/4 SCR-1/4 (from UniProt P08603)”, the pKd in the data set with C3b C3b (Homo sapiens) was 4.93 and 4.96.

Turning to “Complement factor H SCR-19/20 (from UniProt P08603)”, the pKd with C3b C3b (Homo sapiens) was 5.27 and 6.27.
